The results in this text go back to PMC11472046.

One assay addresses H3K9me3 mononucleosome. In words: native gel or EMSA; varying concentrations of Chp2 with 50 nM mononucleosomes; 20 mM HEPES pH 7.5, 4 mM Tris, 80 mM KCl, 0.1% Igepal CA-630, 0.2 mM EDTA, 2 mM DTT, 10% glycerol; 4°C, 30 min; unbound nucleosome band quantified; apparent affinity (K1/2).
The target in assay [1] is H3K9 methylated (H3K9me) histones in chromatin (S. pombe (endogenous in S. pombe cells)). The assay is described as follows: live-cell single-molecule time-lapse imaging; as a4, but PAmCherry-Chp2-low in swi6Δ cells.
Assay [2] shares this target. In words: live-cell single-molecule tracking (NOBIAS mobility states, Bayesian Synthetic Likelihood rate inference); as a2, but PAmCherry-Chp2 expressed from the nmt41 promoter (5x higher level).
Assay [3] has the same target. The assay is described as follows: live-cell single-molecule time-lapse imaging; residence times of stationary PAmCherry-tagged molecules in living WT S. pombe; 200-ms integration time with different dark delay times; kdiss from a linear fit that separates photobleaching.
For assay [4] the target is unchanged. The assay is described as follows: live-cell single-molecule tracking (NOBIAS mobility states, Bayesian Synthetic Likelihood rate inference); PAmCherry-tagged protein photoactivated and tracked in the nucleus of living S. pombe, 40-ms frames, room temperature; Chp2 from the nmt81 promoter, Epe1 from its own or the nmt1 promoter; WT cells, with clr4Δ and swi6Δ cells as comparison.

The target is the same in assay [5]. In words: live-cell single-molecule time-lapse imaging; residence times of stationary PAmCherry-tagged molecules in living WT S. pombe; 200-ms integration time with different dark delay times; kdiss from a linear fit that separates photobleaching. The source holds these as a separate data set.

Sequence of PAmCherry-Chp2 (O42934 whole entry): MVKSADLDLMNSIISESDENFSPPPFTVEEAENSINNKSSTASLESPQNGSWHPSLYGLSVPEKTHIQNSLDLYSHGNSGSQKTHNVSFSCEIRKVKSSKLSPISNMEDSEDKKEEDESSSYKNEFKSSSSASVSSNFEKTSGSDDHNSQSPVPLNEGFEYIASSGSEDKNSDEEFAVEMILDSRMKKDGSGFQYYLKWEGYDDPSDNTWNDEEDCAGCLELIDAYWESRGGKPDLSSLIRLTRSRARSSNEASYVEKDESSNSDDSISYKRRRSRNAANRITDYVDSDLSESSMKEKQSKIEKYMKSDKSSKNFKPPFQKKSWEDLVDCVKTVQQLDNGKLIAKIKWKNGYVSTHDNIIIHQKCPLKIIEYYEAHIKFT
Sequence of PAmCherry-Swi6 (P40381 whole entry): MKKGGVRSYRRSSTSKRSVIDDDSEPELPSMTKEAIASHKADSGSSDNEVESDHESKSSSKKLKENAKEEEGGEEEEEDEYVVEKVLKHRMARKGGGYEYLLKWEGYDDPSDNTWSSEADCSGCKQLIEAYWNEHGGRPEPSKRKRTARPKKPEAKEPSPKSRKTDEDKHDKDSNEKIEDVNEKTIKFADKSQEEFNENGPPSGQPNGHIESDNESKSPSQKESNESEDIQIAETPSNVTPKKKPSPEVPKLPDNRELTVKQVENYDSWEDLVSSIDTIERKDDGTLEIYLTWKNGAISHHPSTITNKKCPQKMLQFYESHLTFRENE
Sequence of Chp2-WT (recombinant) (O42934 whole entry): as the sequence (O42934 whole entry) above

As to “Chp2-WT (recombinant) (from UniProt O42934 1-380) (natural protein)”, the specificity for H3K9me over H3K9me0 nucleosomes with H3K9me3 mononucleosome was determined as 2 fold.
One may read the koff as a measure of how fast the partners let go of each other. Regarding “PAmCherry-Chp2 (from UniProt O42934 1-380) (natural protein)”, the average dwell time in assay [1] was found to be 3.72 s; in assay [3], 3.85 s. The koff in assay [1] was 0.269 s⁻¹; in assay [3], 0.26 s⁻¹; in assay [4], 0.479 s⁻¹. In addition, the weight fraction of the low mobility (H3K9me-bound) state is above 90% in assay [2] and above 92% in assay [4].
“PAmCherry-Chp2 W199A (from UniProt O42934 1-380) (natural protein)” had a weight fraction of the low mobility (H3K9me-bound) state in assay [4] of 10%.
As for “PAmCherry-Swi6 (from UniProt P40381 1-328) (natural protein)”, in assay [3], the average dwell time was 2.2 s and the koff came out at 0.454 s⁻¹. Besides, in assay [5], the average dwell time came to 2.22 s.
